{
  "source": "the DeepSol protein solubility set",
  "test": "soluble on expression in E. coli; label from the status in PepcDB or PDB records",
  "data": [
    {"sequence": "MGSDKIHHHHHHMNDLPLADLDAFATIARLRNFRAAGKLRGVSASSLSEAMRRLEARVGVRLLNRTTRSVTLTDAGARLLERLSPTLADIELALDDINQFRERPFGRLRLNVPGIVARCVLPPVVTGFLAAYPDILLEVTVNDALIDVLAEGCDAGIRYEEALHQDMIAVPIGPRRQRYVCVAAPSYLEQYGRPEHPRDLIHHRSILHRFNSGRVNEWHFEREGEAINVSPPPRLIAETVDLELAAVRAGLGMMGTFEDFVIEDLNAGRLERVLTDWEDEFSGPFLYYHSRRHMPVPLRVFVDYIRQHGDPG", "values": [
      {"measurement": "soluble on expression in E. coli", "result": "not soluble"}
    ]},
    {"sequence": "GSMPKPINVRVTTMDAELEFAIQPNTTGKQLFDQVVKTVGLREVWFFGLQYVDSKGYSTWLKLNKKVTQQDVKKENPLQFKFRAKFFPEDVSEELIQEITQRLFFLQVKEAILNDEIYCPPETAVLLASYAVQAKYGDYNKEIHKPGYLANDRLLPQRVLEQHKLTKEQWEERIQNWHEEHRGMLREDSMMEYLKIAQDLEMYGVNYFEIKNKKGTELWLGVDALGLNIYEHDDKLTPKIGFPWSEIRNISFNDKKFVIKPIDKKAPDFVFYAPRLRINKRILALCMGNHELYMRRRKPDTIEVQQMKAQARVDSSGRIVTD", "values": [
      {"measurement": "soluble on expression in E. coli", "result": "soluble"}
    ]},
    {"sequence": "VVNKKIAYLGDEKPITIWTSLDNVTVIQLEKDETISYITTGFNKGWSIVPNSNHIFIQPKSVKSNLMFEKEAVNFALMTRDYQEFLKTKKLIVDAPDPKELEEQKKALEKEKEAKEQAQKAQKDKREKRKEERAKNRANLENLTNAMSNPQNLSNNKNLSEFIKQQRENELDQMERLEDMQEQAQANALKQIEELNKKQAEETIKQRAKDKINIKTDKPQKSPEDNSIELSPSDSAWRTNLVVRTNKALYQFILRIAQKDNFASAYLTVKLEYPQRHEVSSVIEEELKKREEAKRQKELIKQENLNTTAYINRVMMASNEQIINKEKIREEKQKIILDQAKALETQYVHNALKRNPVPRNYNYYQAPEKRSKHIMPSEIFDDGTFTYFGFKNITLQPAIFVVQPDGKLSMTDAAIDPNMTNSGLRWYRVNEIAEKFKLIKDKALVTVINKG", "values": [
      {"measurement": "soluble on expression in E. coli", "result": "not soluble"}
    ]},
    {"sequence": "MLANFSQKAQETLVGELEELVSTTNLKGVITYCNDAFCRVAEYTHEELVGQNHNIVRHSDMPKAAFGDMWARLKEGKAWRGMVKNSTKSGGYYWVDAYVTPIYEKNQVVGYQSVRVKPKREWVDIAAKAYKGMLAAEKAGRTWSLKINETVRYAILLGALTAPAVAYALSVEGPLAWLASALPASVLALLFRQELIDTPQQLKKLQKQYDSVSRLIYSGNSAFSIADFHIKMLSARIRTVLGRMTDSALPLQNCAEELSQTTSEVSAALNQQNSDIRRVRDATQEVESSANSVSSSTNDAHMLIDDTLKSCMMAKETIDQTHTNLAQLSLQA", "values": [
      {"measurement": "soluble on expression in E. coli", "result": "not soluble"}
    ]},
    {"sequence": "MGHHHHHHSHMKRDELMELIFLGTSAGVPTRTRNVTAILLNLQHPTQSGLWLFDCGEGTQHQLLHTAFNPGKLDKIFISHLHGDHLFGLPGLLCSRSMSGIIQPLTIYGPQGIREFVETALRISGSWTDYPLEIVEIGAGEILDDGLRKVTAYPLEHPLECYGYRIEEHDKPGALNAQALKAAGVPPGPLFQELKAGKTITLEDGRQINGADYLAAPVPGKALAIFGDTGPCDAALDLAKGVDVMVHEATLDITMEAKANSRGHSSTRQAATLAREAGVGKLIITHVSSRYDDKGCQHLLRECRSIFPATELANDFTVFNV", "values": [
      {"measurement": "soluble on expression in E. coli", "result": "not soluble"}
    ]},
    {"sequence": "MLSPITLEALHILDAIERRGSFAAAANELNRAPSSLSYQIQKLEQDLDLMIFDRSGHRANFTEAGKLILERGRAILAATEKLVNDATLLANGWELDITIALDGIVPAANLFPMVEALGNISKTRVRIQDEILAGCWEALATGRADLLICPRIEALPQDVKAETIGTMKMIWVAAPTHYVHRRSGEFNEEAREKYRAIAIADTAREQPAMSVNILQRQPRLTVSNLDAKCKALVAGLGIGTLPLQVAQPYIDKGELKAIHGSEDLEMDIVLAWRRNQMGEAKSWCIQYLKKNWRWE", "values": [
      {"measurement": "soluble on expression in E. coli", "result": "not soluble"}
    ]},
    {"sequence": "PSTLLKNYQDNNKMLVLALENEKSKVKEAQDIILQLRKECYYLTCQL", "values": [
      {"measurement": "soluble on expression in E. coli", "result": "soluble"}
    ]},
    {"sequence": "MSLGSPKSVRIVVVGDKGTGKSSLIVAAATDSFPPNVPPVLPDYKLPIEFFPDGIPVTIVDTSSRPEDRDIVAEELKRADAVVLTYACDRPETLERLSEYWLPELRRLEVKIPIIVAGCKLDFRDDNNQVSLEQVMSPIMQQFREIETCIECSALKQLQAQEVFYYAQKTVLHPTGPLFDQEGHHHHHH", "values": [
      {"measurement": "soluble on expression in E. coli", "result": "soluble"}
    ]},
    {"sequence": "GHMKIVLKIFHAGSLSVPFEEYEKMFEKEHPNVDVEREPAGSVACVRKIIDLGKKADILASADYSLIPQMMMPKYADWYVMFARNEIVLAYTDKSKYKDEINSTNWYKILQRPDVKIGFSNPNDDPCGYRTQMVLQLAELYYKDPTIYDNLVLKHSNIKVEENNGTYLILVPKELDVDTNKLFVRSKETDLLAPLEAGAFDYLFIYKSVANQHHLKYIELPKEINLGYYEYADTYKKVALKIIAKNKTINAKPIVYGMTVPTNAPHKKEAIEFVKFVLGHPEVLENNGQPAI", "values": [
      {"measurement": "soluble on expression in E. coli", "result": "soluble"}
    ]},
    {"sequence": "MGKGLLGKRVAIGGSRKTEEISTIIEKQGGIPVIRPLQGTVYLAEKQVEPDLRTFAEEKADWVIFTTGIGLETLVDMAEKIGLKDEFLQAIRQAKAACRGYKTLSALKKLGITPEASDEDGTTRGLIRSLEPHDFSGKTVMVQLHGEKAPALMAFLEEKGASVLPILPYQHIPPEEETVERLCRELMNDEVDAVCFTTAIQVRSLFDFAKGRGYINEVKKVFEERAIAAAVGKVTAEALREEGITRLLAPEIERMGAMIVELAKYYEEKE", "values": [
      {"measurement": "soluble on expression in E. coli", "result": "not soluble"}
    ]},
    {"sequence": "MSVIIVGGGMAGATLALAISQFSHGTLPVHLIEAKAPEADGHPGFDARAIALAAGTCQQLARIGVWLAISDCATAINTVHVSDRGHAGFVTLDAQDYSLAALGHVAELHDIGLRLFALLRKAPGVTLHCPERVASVSRTQQQVNVTLENGNVIAGSVLVAANGTHSALASACGVDWHQEPYEQLAVIANVATAIPHQGRAFERFTPNGPLAMLPMSHGRCSLVWCHPLDQRDEVLSWSDAQFCHALQAAFGWRLGRITQAGKRSAYPLALTTAAKVFTHRTVVVGNAAQTLHPIAGQGFNLGLRDVMSLAETLVAAQDAGEDIGAWHVLSRYQQRRQVDRDTTIGVTNGLVHLFANRWAPLVIGRNIGLMAMELLPPARDALAQRTLGWVARLEHHHHHH", "values": [
      {"measurement": "soluble on expression in E. coli", "result": "soluble"}
    ]},
    {"sequence": "NKYDWFEFFLNCGVDVSNCQRYTINFDREQLTEDMMPDINNSMLRTLGLREGDIVRVMKHLDKKFGRENIAS", "values": [
      {"measurement": "soluble on expression in E. coli", "result": "soluble"}
    ]},
    {"sequence": "MGSDKIHHHHHHMSQTTLSTIPRLIGQVLSIYDVAPEAIFSAANIDITSDAQTRVPMENMATLWKLAVEATHNNELGLVAASLFQPVYLKSIGLAWLASENLEEGLKRYIASSQLINTEMQIELTERDGIDGEETLIQYQRRLTSSNTIKVHPCAIELGIGFFLKMFRLAAGKNIPATGVYFTFAIEENNKVYEEYFQCPVYGNQAVNGIAFSKALLTETLPTHDVELVEMNEVVINKHLDSMDNGETSSKVIKMINDLLPLGCPTEEVIAYKLHMSKRTLQRKLSVEKQSFLALLTSVRLMLAKEKLANKRVSVTEITYQLGYSSPSTFARAFKKHTQLSPLEYRNQVSSYSSCS", "values": [
      {"measurement": "soluble on expression in E. coli", "result": "not soluble"}
    ]},
    {"sequence": "MGSDKIHHHHHHMRPATALSVTACGPVSTSRPRAASRAAIRLSSGERRFLIDIDVSKPRLRPMTAMTPTLALERSAASGKVAPTPADLSITVRDRRFGRNSPPGRWWLAGDPVATAWHNALSATFPRGEAFFIEAVKAHREGASPKLEAEIRAFVKQEINHTREHIAFNRAAENAGYDIARIDKRVEEMLALTKDRPVILNLAATMALEHYTAMMAHEFLANPAHFAGAEQEAADMWRWHAIEEIEHKGVAYDTWLHATRDWSRWKRWKVKSLMMVVVTKNFITHRVEDTLDLLAQDGLTGAKWKWRLAAYLLWKPGVIRRILPAWLGYFLPGFHPWKHDDRALIGKADSEFTDAVMPG", "values": [
      {"measurement": "soluble on expression in E. coli", "result": "not soluble"}
    ]},
    {"sequence": "MAHHHHHHMVEAQRGYNCVWHSWPPPLQGVNKHFNSCAASPLPLQLLVGNRILLITKDPPLKVIKFFNEFQPEEYIKPGNICTQNVTLKFGDVLNVPVSMQKDLQKRKVTFDIVDQKIVIRKDKVLAEKDKLVSAENAKLLRMLNMKIANFDITVLGYWNVNKFVSLM", "values": [
      {"measurement": "soluble on expression in E. coli", "result": "soluble"}
    ]},
    {"sequence": "MGHHHHHHSHMVYPEEPFWVLPTVTGFYEDRDYRVNVVEALQEFWQMKQSRGAELKNGALVIYESIPSNSQPYICFVTLPGGSCFGSFQNCPTKAEARRSSAKIALMNSVFNEHPSRRISDEFIQKAVQDARTSFKGTSQINEGTESGIGAFRFMLEANKGRTMLEFQELMTVFQLLHWNGSLKAMRERHCSRQEVVAHYSNRSLDDEMRSQMALDWIAREHDNPGVIRRELVLAERELETFRMAGRELRFPKEKKDILMIAHNQLGGSALNSATIDD", "values": [
      {"measurement": "soluble on expression in E. coli", "result": "not soluble"}
    ]}
  ]
}
